The source of these data is US20250313602A1 (NANJING JSIAMA BIOPHARMACEUTICALS, published 2025).

For assay [1], the target named is T1, human IL-2Rα protein (10165-H08H, Sino Biological) (human, UniProt P01589 22-213).
T1 construct: Both are treated as the same protein; also called receptor IL-2Rα protein; CD25
T1 sequence (looked up): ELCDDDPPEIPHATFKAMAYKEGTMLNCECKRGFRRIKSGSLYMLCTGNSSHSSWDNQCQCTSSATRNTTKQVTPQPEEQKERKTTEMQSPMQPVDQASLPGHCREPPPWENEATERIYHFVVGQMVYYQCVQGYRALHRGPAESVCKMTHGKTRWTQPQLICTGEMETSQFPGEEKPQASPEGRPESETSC
The assay is described as follows: ELISA, IL-2Rα coated at 2 µg/ml.

For assay [2], the target named is T2, human IL-2Rβ protein (10696-H05H, Sino Biological) (human, UniProt P14784 27-239).
T2 construct: Both are treated as the same protein; also called receptor IL-2Rβ protein; CD122
T2 sequence (looked up): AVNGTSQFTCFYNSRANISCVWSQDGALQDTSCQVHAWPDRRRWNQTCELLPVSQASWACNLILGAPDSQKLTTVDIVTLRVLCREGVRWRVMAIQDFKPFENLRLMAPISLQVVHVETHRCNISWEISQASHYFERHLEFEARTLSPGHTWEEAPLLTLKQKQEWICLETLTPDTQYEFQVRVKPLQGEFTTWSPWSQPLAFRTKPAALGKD
The assay is described as follows: ELISA, IL-2Rβ coated at 2 µg/ml; reference wild-type IL-2. A general note: In an ELISA, binding on a coated surface is turned into a signal by an enzyme label.

B1: IL-2-Fc fusion protein (Fc fusion)
chain: APTSSSTKKTQLQLEHLLLDLQMILNGINNYKNPKLTAMLTFKFYMPKKATELKHLQCLEEELKPLEEVLNLAQSKNFHFDPRDVVSNINVFVLELKGSETTFMCEYADETATIVEFLNRWITFCQSIISTLTGGGGSGGGGSGGGGSEPKSCDKTHTCPPCPAPEAAGGPSVFLFPPKPKDTLYITREPEVTCVVVDVSHEDPEVKFNWYVDGVEVHNAKTKPREEQYNSTYRVVSVLTVLHQDWLNGKEYKCKVSNKALPAPIEKTISKAKGQPREPQVYTLPPSREEMTKNQVSLTCLVKGFYPSDIAVEWESNGQPENNYKTTPPVLDSDGSFFLYSKLTVDKSRWQQGNVFSCSVMHEALHNHYTQKSLSLSPK
As to B1, the binding result in assay [1] was “binds”. The “fold improvement of binding capacity compared with wild-type IL-2” value in assay [2] worked out at 24 times.
